Experimental findings from patent US5639663, “Bifunctional genetic markers” (National Research Council of Canada, dated 1997) are described below.

The test has as its target beta-glucuronidase (GUS), unfused, expressed from pGK1 (E. coli, UniProt P05804). Nature of the test: molecular sieve chromatography (Superose 6) of E. coli extract co-expressing unfused GUS and NPT-II; enzyme activities of the fractions.

B1: neomycin phosphotransferase-II (NPT-II), unfused, expressed from pGS39 (enzyme)
chain: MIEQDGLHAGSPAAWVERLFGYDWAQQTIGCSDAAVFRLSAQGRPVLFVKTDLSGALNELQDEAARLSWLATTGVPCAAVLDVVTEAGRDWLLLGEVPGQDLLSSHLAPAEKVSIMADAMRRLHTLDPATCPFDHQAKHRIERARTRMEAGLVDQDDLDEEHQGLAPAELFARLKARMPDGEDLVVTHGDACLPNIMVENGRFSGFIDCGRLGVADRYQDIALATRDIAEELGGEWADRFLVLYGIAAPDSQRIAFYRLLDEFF
B1: the binding result was “no binding”.
